US20190112361A1 (Genentech, published 2019)

Molecular target: T1, full-length human Tau (flTau) (human, UniProt P10636-8 1-441)
T1 construct: also called human Tau, longest isoform (441 aa)
Assay: direct ELISA, flTau coated at 1 µg/mL, hybridoma supernatant dilutions
From the text: Serum-free supernatants were harvested from stable hybridomas. The supernatants containing antibodies of interest were then screened by ELISA assays to characterize antibody properties and select antibodies for further development. The ELISA assays were used to determine the following: binding to full-length human Tau (flTau; SignalChem, Canada), binding to hyperphosphorylated flTau (Genentech, USA), binding to oligomeric versus monomeric preparations of flTau, and binding to certain antibody Tau epitope(s).
Coating was done overnight in phosphate-buffered saline (PBS) at 4° C. Plates were washed thoroughly with 0.05% Tween-20/PBS and then blocked with 1% bovine serum albumin (BSA) in 0.05% Tween-20/PBS for 1 hr at 37° C. The antibody contained in the hybridoma supernatant was then added at the indicated dilutions, and incubated for 2 hrs at 37° C. after which the plates were washed as described previously.
For the direct ELISAs, an AP-conjugated anti-mouse IgG secondary antibody (Jackson ImmunoResearch Laboratories, United Kingdom) was added at 1/6000 dilution in 0.05% Tween-20/PBS for 2 hr at 37° C. After the final wash, plates were incubated with p-nitrophenyl phosphate disodium hexahydrate (pNPP; Sigma-Aldrich, Switzerland) phosphatase substrate solution, and read at 405 nm using an ELISA plate reader (Tecan, Switzerland). Results are expressed as optical densities (O.D.).

T1 sequence (P10636 other isoform, or with tags, fused parts or gaps limits assumed): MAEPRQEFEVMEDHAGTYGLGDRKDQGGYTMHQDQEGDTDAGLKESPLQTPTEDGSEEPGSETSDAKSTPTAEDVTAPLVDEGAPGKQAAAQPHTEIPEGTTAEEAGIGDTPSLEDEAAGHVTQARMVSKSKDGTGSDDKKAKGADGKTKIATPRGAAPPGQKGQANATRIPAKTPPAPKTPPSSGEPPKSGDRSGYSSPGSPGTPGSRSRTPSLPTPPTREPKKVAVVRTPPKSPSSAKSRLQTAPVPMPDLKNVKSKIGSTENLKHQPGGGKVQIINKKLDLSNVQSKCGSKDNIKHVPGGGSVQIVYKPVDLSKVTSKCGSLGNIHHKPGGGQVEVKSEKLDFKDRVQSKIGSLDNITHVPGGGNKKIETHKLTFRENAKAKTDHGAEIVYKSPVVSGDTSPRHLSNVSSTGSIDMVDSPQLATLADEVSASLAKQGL

B1: 12A10-E8 (antibody, V domains shown)
VH: QIQLVQSGPELKKPGETVKISCKASGYTFTNYGMNWVKQAPGKGLKWMGWINMYTGEPTYGDDFKGRFVFSLETSVSTVYLQINNLKKEDTATFFCARGGRPDYWGQGTSVTVSS
VL: DVLMTQTPLSLPVSLGDQASISCRSSQSIVHSNGNTYLEWYLQKPGQSPKLLIYKVFNRFSGVPDRFSGSGSGTDFTLKINRVEAEDLGVYYCLQGSHVPYTFGGGTKLEIK
notes: hybridoma supernatant
binding result: binds
